Reference: doi:10.1101/431494

Columns and labels:
[1] = target: Haliangium ochraceum encapsulated ferritin as crystallised (PDB 5N5F) (Haliangium ochraceum) (UniProt D0LZ73); experiment: crystal structure
[2] = target: Haliangium ochraceum encapsulated ferritin, residues 1-98, C-terminal hexa-histidine tagged variant (Haliangium ochraceum) (UniProt D0LZ73); experiment: SDS-PAGE

| Substance | stoichiometry N [1] | stoichiometry N [2] |
| --- | --- | --- |
| Haliangium ochraceum encapsulated ferritin as crystallised (PDB 5N5F) (from UniProt D0LZ73 1-98) (domain or fragment) | 10 | – |
| Haliangium ochraceum encapsulated ferritin, residues 1-98, C-terminal hexa-histidine tagged variant (from UniProt D0LZ73 1-98) (domain or fragment) | – | 2 |
